# Data: article PMC3900688, “Expression and Purification of Chaperone-Active Recombinant Clusterin” (PLoS ONE, 2014)
# Molecular target: the molecule itself
# Test: SEC; Superose 6 10/300 column in PBS/Az, 0.3 ml/min, A280 monitored; self-association (mixture of oligomers)
row,Protein,binding result
1,"wild type clusterin purified from human plasma (natural protein, glycosylated | glycosylated, clusterin beta-chain, human; joined to the alpha-chain by 5 disulfide bonds; clusterin alpha-chain, human; joined to the beta-chain by 5 disulfide bonds; Disulphide-bonded alpha-beta heterodimer with heterogeneous glycosylation, from pooled donors; also called wtCLU; human plasma clusterin) chain 1: DQTVSDNELQEMSNQGSKYVNKEIQNAVNGVKQIKTLIEKTNEERKTLLSNLEEAKKKKEDALNETRESETKLKELPGVCNETMMALWEECKPCLKQTCMKFYARVCRSGSGLVGRQLEEFLNQSSPFYFWMNGDRIDSLLENDRQQTHMLDVMQDHFSRASSIIDELFQDRFFTREPQDTYHYLPFSLPHRRPHFFFPKSRIVR chain 2: SLMPFSPYEPLNFHAMFQPFLEMIHEAQQAMDIHFHSPAFQHPPTEFIREGDDDRTVCREIRHNSTGCLRMKDQCDKCREILSVDCSTNNPSQAKLRRELDESLQVAERLTRKYNELLKSYQWKMLNTSSLLEQLNEQFNWVSRLANLTQGEDQYYLRVTTVASHTSDSDVPSGVTEVVVKLFDSDPITVTVPVEVSRKNPKFMETVAEKALQEYRKKHREE",binds
2,"mammalian cell-expressed recombinant clusterin secreted by stably transfected HEK293 cells (natural protein, human, glycosylated | glycosylated, clusterin beta-chain, human, from human CLU cDNA in pRcCMV; secreted and cleaved into alpha- and beta-chains; clusterin alpha-chain, human, from human CLU cDNA in pRcCMV; Disulphide-bonded alpha-beta heterodimer, less glycosylated than plasma clusterin; No tag is stated; also called m-rCLU; rCLU) chain 1: DQTVSDNELQEMSNQGSKYVNKEIQNAVNGVKQIKTLIEKTNEERKTLLSNLEEAKKKKEDALNETRESETKLKELPGVCNETMMALWEECKPCLKQTCMKFYARVCRSGSGLVGRQLEEFLNQSSPFYFWMNGDRIDSLLENDRQQTHMLDVMQDHFSRASSIIDELFQDRFFTREPQDTYHYLPFSLPHRRPHFFFPKSRIVR chain 2: SLMPFSPYEPLNFHAMFQPFLEMIHEAQQAMDIHFHSPAFQHPPTEFIREGDDDRTVCREIRHNSTGCLRMKDQCDKCREILSVDCSTNNPSQAKLRRELDESLQVAERLTRKYNELLKSYQWKMLNTSSLLEQLNEQFNWVSRLANLTQGEDQYYLRVTTVASHTSDSDVPSGVTEVVVKLFDSDPITVTVPVEVSRKNPKFMETVAEKALQEYRKKHREE",binds
